Test results: publication PMC8991199 (2022)

B1: S100A5 (natural protein)
chain: METPLEKALTTMVTTFHKYSGREGSKLTLSRKELKELIKKELCLGEMKESSIDDLMKSLDKNSDQEIDFKEYSVFLTMLCMAYNDFFLEDNK

Legend:
[1] = molecular target: fIF, fluorescently labelled H14 foldamer IF (β-peptidic hexamer: β3-amino acids with proteinogenic side chains (I, F) in positions 2 and 5, ACHC (trans-2-aminocyclohexancarboxylic acid) residues; 5(6)-carboxyfluorescein on the ε-amino group of …); test: FP
[2] = molecular target: fWL, fluorescently labelled H14 foldamer WL (β-peptidic hexamer: β3-amino acids with proteinogenic side chains (W, L) in positions 2 and 5, ACHC (trans-2-aminocyclohexancarboxylic acid) residues; 5(6)-carboxyfluorescein on the ε-amino group of …); test: FP
S100A5 [3] = molecular target: B1; test: FP; competition against fWL
S100A5 [4] = molecular target: B1; test: FP; competition against fIF

Binder | Kd [1] [µM] | Kd [2] [µM] | Kd (S100A5 [3]) [µM] | Kd (S100A5 [4]) [µM]
B1 | 32 | 7.9 |  | 
TRTKIDWNKILS [TRTK12 peptide] |  |  | 4.9 | 2.4
